Patent publication US20130302399A1 (ALDERBIO, published 2013)
Numbering of substitutions follows the chain as printed.

B1: Ab5 (antibody, human IgG1, kappa, N297A, V domains shown)
VH: QSVEESGGRLVTPGTPLTLTCTVSGFSLSSYAMSWVRQAPGKGLEWIGIISNSGTTYYASWAKGRFTISKTSTTVDLKITSPTTEDTATYFCARGIYWYWRVFNLWGPGTLVTVSS
VL: AVLTQTPSPVSAAVGGTVTINCQASQSVYNNLLSWYQQKPGQPPKLLIYDASNLASGVPDRFSGSGSGTQFTLTISGVQCDDAATYYCLGGYDDDADNAFGGGTEVVVKR
notes: also called antibody Ab5
B2: Ab8 (antibody, human IgG1, kappa, N297A, V domains shown)
VH: QEQLVESGGGLVQPEGSLTLTCTASGFSFTSDYYMCWVRQAPGKGLEWIGCISTGDGSTYYASWAKGRFTISKPSSTTVTLQMTRLTAADTATYFCARDRYYSYAYGAYVYASDLWGPGTLVTVSS
VL: DIVMTQTPASVSEPVGGTVTINCQASESIRNYLSWYQQKPGQRPKLLIYGASTLASGVPSRFKGSGSGTDFTLTISDLECADAATYYCQSNYGISSRSYVNGFGGGTEVVVKR
notes: also called antibody Ab8
B3: Ab9 (antibody, human IgG1, kappa, N297A, V domains shown)
VH: QSVEESGGRLVTPGTPLTLTCTVSGIDLSSYAMGWVRQAPGKGLEYIGIIVSYGPTYYASWAKGRFTISKTSTTVDLKITSPTAEDTATYFCARDLDANSSGYYGCFNIWGQGTLVTVSS
VL: AVVLTQTPASVSAAVGGTVTIKCQASQSISTALAWYQQKPGQPPKLLIYAASPLASGVSSRFKSSGSGTEFTLTISDLECADAATYYCQSYYGSSNIAFGGGTELEILR
notes: also called antibody Ab9
B4: Ab13 (antibody, human IgG1, kappa, N297A, V domains shown)
VH: QSVEESGGRLVTPGTPLTLTCTVSGIDLSTYGVGWVRQAPGKGLEYIGIISSSGSTYYASWAKGRFTISKTSSTTVDLKMTSLTTEDTATYFCARDWSSTTGYYGYFNMWGPGTLVTVSS
VL: AFELTQTPSPVSAAVGGTVTIKCQASQSISTALAWYQQKPGQPPKLLIYGASNLESGVPSRFSGSGSGTQFTLTISDLECADAAIYYCQSSYGSSTLAFGGGTEVVVKR
notes: also called antibody Ab13
B5: Ab7 (antibody, human IgG1, kappa, N297A)
heavy: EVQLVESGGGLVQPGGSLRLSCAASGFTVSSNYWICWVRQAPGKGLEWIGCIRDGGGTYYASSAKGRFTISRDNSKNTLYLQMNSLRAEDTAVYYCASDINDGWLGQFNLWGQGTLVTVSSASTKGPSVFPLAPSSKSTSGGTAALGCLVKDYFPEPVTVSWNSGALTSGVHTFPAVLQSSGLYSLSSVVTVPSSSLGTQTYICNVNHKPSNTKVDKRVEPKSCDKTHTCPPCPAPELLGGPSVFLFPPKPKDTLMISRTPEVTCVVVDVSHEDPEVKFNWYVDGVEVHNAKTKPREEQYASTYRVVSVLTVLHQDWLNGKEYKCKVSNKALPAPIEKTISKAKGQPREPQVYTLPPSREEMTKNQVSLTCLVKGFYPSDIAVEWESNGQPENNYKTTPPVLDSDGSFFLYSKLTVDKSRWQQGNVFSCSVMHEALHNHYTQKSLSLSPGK
light: ADIVMTQSPSSLSASVGDRVTIKCQASQSISAYLAWYQQKPGKVPKLLIYRAYTLASGVPSRFSGSGSGTDFTLTISSLQPEDVATYYCQSYYSVTTNTYGNTFGGGTKVEIKRTVAAPSVFIFPPSDEQLKSGTASVVCLLNNFYPREAKVQWKVDNALQSGNSQESVTEQDSKDSTYSLSSTLTLSKADYEKHKVYACEVTHQGLSSPVTKSFNRGEC
notes: also called antibody Ab7
B6: Ab12 (antibody, human IgG1, kappa, N297A)
heavy: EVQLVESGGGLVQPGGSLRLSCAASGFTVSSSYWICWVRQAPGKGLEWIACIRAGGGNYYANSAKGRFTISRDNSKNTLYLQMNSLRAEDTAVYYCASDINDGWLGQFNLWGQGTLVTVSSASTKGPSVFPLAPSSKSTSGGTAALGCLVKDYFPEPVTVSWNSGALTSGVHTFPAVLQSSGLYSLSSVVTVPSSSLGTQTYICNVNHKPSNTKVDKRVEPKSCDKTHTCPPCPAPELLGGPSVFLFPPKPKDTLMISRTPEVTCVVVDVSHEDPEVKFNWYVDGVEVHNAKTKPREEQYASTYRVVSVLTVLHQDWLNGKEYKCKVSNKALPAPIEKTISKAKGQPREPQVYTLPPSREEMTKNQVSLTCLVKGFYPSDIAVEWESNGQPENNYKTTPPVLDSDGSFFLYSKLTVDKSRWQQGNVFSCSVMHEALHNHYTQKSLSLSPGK
light: B5 light with D2N, A32N, A52T, Y53S, N98V, T99A
notes: also called antibody Ab12
B7: Ab18 (antibody, human IgG1, kappa, N297A)
heavy: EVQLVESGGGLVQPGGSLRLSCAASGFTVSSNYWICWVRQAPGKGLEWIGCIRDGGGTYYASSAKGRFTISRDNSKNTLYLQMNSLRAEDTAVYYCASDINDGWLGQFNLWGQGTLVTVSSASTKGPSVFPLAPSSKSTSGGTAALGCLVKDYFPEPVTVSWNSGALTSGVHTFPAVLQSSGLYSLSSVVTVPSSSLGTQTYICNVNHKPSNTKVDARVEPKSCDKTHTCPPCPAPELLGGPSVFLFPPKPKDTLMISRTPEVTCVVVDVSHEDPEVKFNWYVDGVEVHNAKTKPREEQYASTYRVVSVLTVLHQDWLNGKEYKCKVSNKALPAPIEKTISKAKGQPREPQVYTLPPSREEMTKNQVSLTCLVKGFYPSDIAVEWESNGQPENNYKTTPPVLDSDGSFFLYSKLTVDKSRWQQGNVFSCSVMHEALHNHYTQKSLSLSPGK
light: B5 light
notes: also called antibody Ab18
B8: Ab11 (antibody, human IgG1, kappa, N297A)
heavy: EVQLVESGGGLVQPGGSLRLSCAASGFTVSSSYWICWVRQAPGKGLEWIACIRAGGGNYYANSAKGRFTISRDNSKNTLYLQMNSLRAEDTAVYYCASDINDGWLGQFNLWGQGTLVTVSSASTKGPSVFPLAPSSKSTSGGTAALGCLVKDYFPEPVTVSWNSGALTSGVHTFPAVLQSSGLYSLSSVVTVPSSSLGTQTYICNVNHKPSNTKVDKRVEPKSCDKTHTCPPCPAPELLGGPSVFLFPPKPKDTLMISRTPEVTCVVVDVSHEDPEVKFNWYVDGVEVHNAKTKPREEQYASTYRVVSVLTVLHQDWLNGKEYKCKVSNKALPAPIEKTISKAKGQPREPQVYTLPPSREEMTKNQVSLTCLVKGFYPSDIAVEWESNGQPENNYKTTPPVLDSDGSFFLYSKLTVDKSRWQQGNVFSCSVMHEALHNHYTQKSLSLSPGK
light: B5 light with D2N, K23T, A32N, A52T, Y53S, N98V, T99A
notes: also called antibody Ab11
B9: Ab6 (antibody, human IgG1, kappa, N297A, V domains shown)
VH: QEQLEESGGDLVKPEGSLTLTCTASGFSFSSNYWICWVRQAPGKGLEWIGCIRDGGGTYYASWAKGRLTISMTSSTTVTLQLNSLTAADTATYFCASDINDGWLGQFNLWGPGTLVTVSS
VL: DIVMTQTPASVEVAVGGTVTIKCQASQSISAYLAWYQQKPGQPPKLLIYRAYTLASGVPSRFKGSGSGTQFTLTISDLECADAATYYCQSYYSVTTNTYGNTFGGGTEVVVKR
notes: also called antibody Ab6
B10: Ab10 (antibody, human IgG1, kappa, N297A, V domains shown)
VH: B9 VH with N32S, G50A, D54A, T58N, S62N, L68F, M72R, L82M, N83T
VL: B9 VL with D1N, V13A, A31N, A51T, Y52S, N97V, T98A
notes: also called antibody Ab10
B11: Ab16 (antibody, human IgG1, kappa, N297A, V domains shown)
VH: B9 VH with E5V, D10G, K13Q, N32D, T58S, S62N, T79G, Q81K, L82M, N83T
VL: B9 VL with V13A, A31S, Y52S, K63S, Q70E, N97V
notes: also called antibody Ab16
B12: Ab17 (antibody, human IgG1, kappa, N297A, V domains shown)
VH: QEQLEESGGDLVKPEGSLTLTCTASGFSFSSSYWICWVRQAPGKGLEWIGCIRPGSADYYASWAKGRFTISRASSSTVTLQMTSLTAADTATYFCASDINDGWLGQFNLWGPGTLVTVSS
VL: B9 VL with I2V, V13A, Q27L, S30A, A31D, Q37L, Y52S, Q70E, F71Y
notes: also called antibody Ab17
B13: Ab14 (antibody, human IgG1, kappa, N297A, V domains shown)
VH: QEQLEESGGDLVKPEGSLTLTCTGSGFSFSSIAYMCWIRQAPGKGLEWIGCIGSGSGNTYYANWAKGRFTISKSSSTTVTLQMTSLTAADTATYFCASDTNNGWLGQFNLWGQGTLVTVSS
VL: B9 VL with E12S, V13A, K22N, A31S, Y52S, S90G
notes: also called antibody Ab14
B14: Ab19 (antibody, human IgG1, kappa, N297A, V domains shown)
VH: EVQLVESGGGLVQPGGSLRLSCAASGIDLSSYAMGWVRQAPGKGLEYIGIIVSYGPTYYASWAKGRFTISRDNSKNTVYLQMNSLRAEDTATYFCARDLDAQSSGYYGAFNIWGQGTLVTVSS
VL: DIQMTQSPSTLSASVGDRVTITCQASQSISTALAWYQQKPGKAPKLLIYAASPLASGVPSRFSGSGSGTEFTLTISSLQPDDFATYYCQSYYGSSNIAFGGGTKVEIKR
notes: also called antibody Ab19
B15: Ab20 (antibody, human IgG1, kappa, N297A, V domains shown)
VH: B14 VH with N76S
VL: B14 VL
notes: also called antibody Ab20
B16: Ab4 (antibody, human IgG1, kappa, N297A, V domains shown)
VH: QSVEESGGRLVTPGTPLTLTCTVSGIDLSSYAMIWVRQAPEKGLEYIGYIGGIDSTYYASWAKGRFTISKTSTTVDLKMTSPTTEDTATYFCGRWSGTSGYNTIWGPGTLVTVSS
VL: DVVMTQTPASVEAAVGGTVTIKCQASQSIYSNLAWYQQKPGQPPKLLIYGASNLASGVSSRFKGSRSGTEYTLTISDLECADAATYYCQCTGGGDSGNTFGGGTEVVVKR
notes: also called antibody Ab4
B17: Ab2 (antibody, human IgG1, kappa, N297A, V domains shown)
VH: QSVEESGGRLVTPGTPLTLTCTVSGFSLSSYAMSWVRQAPGKGLEWIGIIDAIDNTYYASWAKGRFTISKTSTTVDLKMTSLTTGDTATYFCARASILGYSIATGFNIWGPGTLVTVSS
VL: AYDMTQTPASVEVAVGGTVTIKCQASQSISSHLAWYQQKSGQPPKLLIYRASTLESGVSSRFKGSGSGTEFTLTISDLECADAATYYCQQGYGVSDVDNGFGGGTEVVVKR
notes: also called antibody Ab2
B18: Ab3 (antibody, human IgG1, kappa, N297A, V domains shown)
VH: QSVEESGGRLVTPGGSLTLTCTASGFSLSSYYMSWVRQAPGKGLEWIGIIYPSGSTYYASWAKGRFTISKTSTTVDLKITSPTVEDTATYFCARGGAYATLNLWGPGTLVTVSS
VL: AVLTQTPSPVSAAVGGTVTISCQSSQSVYHNNLLSWYQQKPGQPPKLLIYDASKLTSGVSSRFSGSGSGTQFTLTISGVQCDDAATYYCLGGYDDDADNGFGGGTEVVVKR
notes: also called antibody Ab3
B19: Ab15 (antibody, human IgG1, kappa, N297A, V domains shown)
VH: QEQLEESGGDLVKPEGSLTLTCTASGFSFSSSYWICWVRQAPGKGLEWIACIDAGNSGSTYYASWAKGRFTISKASSTTVTLQMTSLTAADTATYFCASDLNDGWLGQFNLWGPGTLVTVSS
VL: NIVMTQTPSPVSGAVGGTVTIKCQASQSISDYLAWYQQKPGQPPKLLIYRASTLASGVPSRFRGSGSGTEYTLTITDLECADAATYYCQSYYSVTTNTYGNTFGGGTEVVVKR
notes: also called antibody Ab15
B20: Ab1 (antibody, human IgG1, kappa, N297A, V domains shown)
VH: QSVEESGGRLVTPGTPLTLTCTVSGFSLSSYWMTWVRQAPGKGLEYIGIISSSGSTYYATWAKGRFTISKTSSTTVDLEITSPTTEDTATYFCARDSAFSSGLEFNIWGPGTLVTVSS
VL: AYDLTQTPASVEVAVGGTVTIKCQASQSVYSNWLSWYQQKPGQPPKLLIYDASDLASGVPSRFKGSGSGTQFTLTISGVQCDDAATYYCQQGQSSSDIDNTFGGGTEVVVKR
notes: also called antibody Ab1

target: T1, human Proprotein Convertase Subtilisin-like/Kexin type 9 (human, UniProt Q8NBP7 31-692, limits assumed); experiment: BLI (Octet QK), biotinylated antibody on streptavidin sensors, human PCSK9 in solution, 1:1 fit
T1 construct: Biotinylated in the ELISAs; unlabelled analyte in BLI and SPR; also called human PCSK9; PCSK9
T1 sequence (Q8NBP7 31-692 limits assumed): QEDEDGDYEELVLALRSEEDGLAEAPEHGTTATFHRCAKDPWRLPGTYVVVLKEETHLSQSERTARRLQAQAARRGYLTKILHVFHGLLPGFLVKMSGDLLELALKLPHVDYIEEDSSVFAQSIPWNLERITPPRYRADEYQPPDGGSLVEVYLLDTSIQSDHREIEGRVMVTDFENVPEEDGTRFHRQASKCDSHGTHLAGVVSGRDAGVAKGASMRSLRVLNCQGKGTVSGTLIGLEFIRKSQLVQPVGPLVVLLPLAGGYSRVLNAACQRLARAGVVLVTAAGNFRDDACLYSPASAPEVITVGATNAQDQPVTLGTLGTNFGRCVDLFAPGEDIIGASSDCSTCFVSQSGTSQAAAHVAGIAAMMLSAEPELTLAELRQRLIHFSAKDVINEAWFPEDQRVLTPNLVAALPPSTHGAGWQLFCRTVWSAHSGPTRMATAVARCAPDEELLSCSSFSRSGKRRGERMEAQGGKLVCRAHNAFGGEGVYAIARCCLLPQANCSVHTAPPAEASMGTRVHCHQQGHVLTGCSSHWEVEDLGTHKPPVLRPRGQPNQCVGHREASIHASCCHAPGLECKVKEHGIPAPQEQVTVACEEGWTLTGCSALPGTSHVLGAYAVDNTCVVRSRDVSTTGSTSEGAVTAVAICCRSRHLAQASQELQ
Description: Binding affinities of monoclonal antibodies for PCSK9 were estimated using Bio-Layer Interferometry (BLI) on the Octet QK (ForteBio). Biotinylated antibody was immobilized at different densities to the surface of Streptavidin (SA) Biosensors. A dilution series of human PCSK9 prepared in 1× Kinetics Buffer (NaCl 0.0138 M; KCl 0.00027 M; 0.1 mg/mL BSA, 0.002% Tween and 0.005% Sodium Azide; pH 7.4, at 25° C.) purchased from the manufacturer (ForteBio) was used to query the antibodies. At our chosen concentrations of antigen (˜0.25 μg/mL-2 μg/mL) association times of 15 minutes and dissociation times of 25 minutes were used with the Octet Analysis Software (v6.4, ForteBio), to globally fit data using a 1:1 Langmuir binding model.

Kd	koff	kon	Binder
3160 pM	0.000278 s⁻¹	88100 M⁻¹ s⁻¹	B1
637 pM	4.91e-05 s⁻¹	77000 M⁻¹ s⁻¹	B2
637 pM	4.91e-05 s⁻¹	77000 M⁻¹ s⁻¹	B3
2230 pM	0.000353 s⁻¹	159000 M⁻¹ s⁻¹	B4
379 pM	2.68e-05 s⁻¹	70700 M⁻¹ s⁻¹	B5
120 pM	1.21e-05 s⁻¹	100000 M⁻¹ s⁻¹	B6
215 pM	2.09e-05 s⁻¹	97000 M⁻¹ s⁻¹	B7
332 pM	2.22e-05 s⁻¹	66800 M⁻¹ s⁻¹	B8
531 pM	4e-05 s⁻¹	75300 M⁻¹ s⁻¹	B9
676 pM	5.09e-05 s⁻¹	75300 M⁻¹ s⁻¹	B10
1280 pM	9.92e-05 s⁻¹	77500 M⁻¹ s⁻¹	B11
609 pM	6.27e-05 s⁻¹	103000 M⁻¹ s⁻¹	B12
3700 pM	0.000362 s⁻¹	97900 M⁻¹ s⁻¹	B13
1300 pM	0.000116 s⁻¹	88000 M⁻¹ s⁻¹	B14
600 pM	6.63e-05 s⁻¹	108000 M⁻¹ s⁻¹	B15
6000 pM	0.000422 s⁻¹	70300 M⁻¹ s⁻¹	B16
4250 pM	0.000453 s⁻¹	107000 M⁻¹ s⁻¹	B17
5870 pM	0.000554 s⁻¹	94400 M⁻¹ s⁻¹	B18
839 pM	5.8e-05 s⁻¹	69200 M⁻¹ s⁻¹	B19
7990 pM	0.0013 s⁻¹	162000 M⁻¹ s⁻¹	B20
